Patent publication US20240182575A1 (Ablynx, published 2024)
Blank lines part the entries; values can stand above or below the binder they belong to.

Legend:
[1] = molecular target: T1, human CD28 on Jurkat cells (human, UniProt P10747 19-220); test: FACS competition, Jurkat cells; blocked ligand CD86-Fc
T1 construct: whole, on cells; also called native form of the CD28 antigen; cell expressed CD28
Text: (§1) The potency of cell-expressed CD28 binding Nanobodies to inhibit the interaction of CD28 with either CD80 or CD86 was also ranked using FACS based screening method. […] Dead cells were stained by including TOPRO3 vital dye in the final resuspension buffer. All samples were read on a BD FACSarray instrument. Dead cells were excluded from the analysis by gating out TOPRO3 vital dye positive scoring cells.

[2] = molecular target: T1, human CD28 on Jurkat cells; test: FACS competition, Jurkat cells; blocked ligand CD80-Fc
Text: as §1

[3] = molecular target: T2, HuCD28-HuIgG1 (fusion protein of the extracellular part of human CD28 and human Fc gamma 1, R&D Systems Cat … (human, UniProt P10747 19-152; P01857 100-330 = IgG part); test: competition ELISA, CD28-hFc in solution; blocked ligand coated B7-1-muFc
T2 construct: extracellular domain;domain: Fc; bought; also called CD28-Ig; hCD28-Fc

[4] = molecular target: T1, human CD28 on Jurkat cells; test: FACS, Jurkat cells
Experimental: (§2) Binding of putative CD28 reactive Nanobodies clones was detected using unlabeled anti-c-myc tag mouse monoclonal antibody 9E10, followed by a phycoerythrin conjugated F(ab′)2 derived from goat-anti-mouse IgG (human and bovine crossabsorbed), and read on a BD FACSarray instrument. Dead cells were excluded from the analysis by gating out TOPRO3 vital dye positive scoring cells. Binding of the Nanobodies to cells was evaluated in BD FACSarray control software as PE channel histograms.

[5] = molecular target: T3, HuCD86-MuIgG2a (fusion protein of the extracellular part of human CD86 and mouse Fc gamma 2a, Ancell Cat … (human; mouse, UniProt P42081 24-247; P01863 98-330 = IgG part); test: competition ELISA, coated CD86-Ig; blocked ligand CD28-Ig
T3 construct: extracellular domain;domain: Fc; bought; also called B7-2

[6] = molecular target: T4, rhPDL2-Fc (fusion protein of the extracellular part of human PD-L2 and mouse Fc gamma 1, R&D Systems Cat … (human; mouse, UniProt Q9BQ51 20-220; P01868 98-324 = IgG part, limits assumed); test: ELISA, coated PD-L2
T4 construct: extracellular domain;domain: Fc; bought; also called PD-L2 ectodomain
Experimental: In short, 5 μg/ml PD-L2 ectodomain (R&D Systems, Minneapolis, US, Cat #1224-PL) was immobilized on maxisorp microtiter plates (Nunc, Wiesbaden, Germany) and free binding sites were blocked using 4% Marvel in PBS. Next, 10 μl of periplasmic extract containing Nanobody of the different clones in 100 μl 2% Marvel PBST were allowed to bind to the immobilized antigen. […] Binding specificity was determined based on OD values compared to controls having received no Nanobody (low control).
After expression, the obtained Nanobodies were purified via the His-tag on Talon beads.

[7] = molecular target: T5, rhB7H1-Fc (fusion protein of the extracellular part of human B7-H1 (PD-L1) and mouse Fc gamma 1, R&D Systems … (human; mouse, UniProt Q9NZQ7 19-238; P01868 98-324 = IgG part, limits assumed); test: ELISA, coated B7-H1
T5 construct: extracellular domain;domain: Fc; bought; also called B7-H1 ectodomain

[8] = molecular target: T5, rhB7H1-Fc (fusion protein of the …); test: competition ELISA, coated B7-H1; blocked ligand PD-1-biotin
Experimental: Next, 0.5 μg/ml of PD-1 was preincubated with a dilution series of purified Nanobody.

[9] = molecular target: T6, human CTLA4 (Y201 mutated to valine) on stably transfected CHO-K1 cells (human, UniProt P16410 36-223); test: FACS, direct binding titration on human CTLA4 CHO cells (head prints IC50)
T6 construct: whole, on cells; the mutation of the intracellular position Y201 keeps the protein on the membrane; also called human CTLA4 overexpressing CHO cells; human CTLA4 transfectant
Experimental: as §2, with “CTLA4” for “CD28”

[10] = molecular target: T7, HuCTLA4-HuIgG1 (fusion protein of the extracellular part of human CD152 and human Fc gamma 1, CTLA4-Ig) (human, UniProt P16410 36-161); test: alphascreen; competitor biotinylated HuCD80-MuIgG2a
T7 construct: extracellular domain; also called CTLA4-hFc; CTLA4-Fc; not shown: human Fc gamma 1
Text: Individual clones were scored as putative CTLA4/CD80 interaction inhibiting if the presence of the periplasmic extract decreased the fluorescent signal of the acceptor beads.

[11] = molecular target: T7, HuCTLA4-HuIgG1 (fusion protein of the …); test: SPR, Biacore T100, CTLA4-Ig amine-coupled
Experimental: Affinity constants (Kd) of individual purified Nanobody clones were determined by surface plasmon resonance on a Biacore T100 instrument. […] Remaining reactive groups were inactivated using ethanolamine. […] Each sample was injected for 2 min at a flow rate of 45 μl/min to allow for binding to chip-bound antigen. Next, binding buffer without Nanobody was sent over the chip at the same flow rate to allow for dissociation of bound Nanobody. After 2 min, remaining bound analyte was removed by injecting regeneration solution (10 mM Glycine/HCl pH 1.5). Binding curves obtained at different concentrations of Nanobody were used to calculate KD values. For some clones, only a single undetermined concentrations of Nanobody was injected.

[12] = molecular target: T8, cynomolgus monkey CTLA4 on stably transfected CHO-K1 cells (human CTLA4 cDNA with S13N, I17T and L105M) (human backbone with cynomolgus monkey …, UniProt P16410 36-223); test: FACS, direct binding titration on cyno CTLA4 CHO cells (head prints IC50)
T8 chain: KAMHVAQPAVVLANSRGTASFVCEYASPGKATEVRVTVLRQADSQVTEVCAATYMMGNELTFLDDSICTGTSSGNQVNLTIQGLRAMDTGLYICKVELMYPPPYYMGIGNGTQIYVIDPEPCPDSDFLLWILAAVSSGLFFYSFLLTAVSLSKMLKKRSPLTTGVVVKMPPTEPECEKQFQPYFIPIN

[13] = molecular target: T4, rhPDL2-Fc (fusion protein of the …); test: competition ELISA, coated PD-L2; blocked ligand PD-1-biotin
Experimental: In short, 2 μg/ml PD-L2 ectodomain (R&D Systems, Minneapolis, US, Cat #1224-PL) was immobilized on maxisorp microtiter plates (Nunc, Wiesbaden, Germany) and free binding sites were blocked using 4% Marvel in PBS. Next, 0.5 μg/ml of PD-1 was preincubated with a dilution series of purified Nanobody.

[14] = molecular target: T9, rhB7-H2-Fc (fusion protein of the extracellular part of human B7-H2 (ICOSL) and mouse Fc gamma 1, R&D Systems … (human; mouse, UniProt O75144 19-256; P01868 98-324 = IgG part, limits assumed); test: competition ELISA, coated B7-H2; blocked ligand ICOS-biotin
T9 construct: extracellular domain;domain: Fc; bought; also called B7-H2 ectodomain

[15] = molecular target: T9, rhB7-H2-Fc (fusion protein of the …); test: ELISA, coated B7-H2
Experimental: Next, 10 μl of periplasmic extract containing Nanobody of the different clones in 100 μl 2% Marvel PBST were allowed to bind to the immobilized antigen. […] Binding specificity was determined based on OD values compared to controls having received no Nanobody (low control).
After expression, the Nanobodies were purified via the His-tag on Talon beads.

IC50 (read off the curve) [1]: ~2 ng/well
IC50 (read off the curve) [2]: ~3 ng/well
IC50 (read off the curve) [3]: ~90 nM
EC50 (read off the curve) [4]: ~2 ng/well
B1: 65C2 (VHH)
VHH: EVQLVESGGGLVQAGGSLRLSCAASGLTFSNYVMGWFRQAPGKEREFVGTISWDGSDTYYTHSVKGRFTISRDNAKNVVNLQMNSLKPEDTAVYYCAADYRPGGLLSLGKNEYDYWGQGTQVTVSS
notes: Nanobody against CD28

binding result [5]: binds
B2: CD8086PMP2B4 (VHH)
VHH: EVQLVESGGGLVQAGGSLRLSCAASGSIFSIYTMGWYRQAPGEQRELVAAITSGGSTNYADSVKGRFTISRDNAKNTVYLQMNSLKPEDTAVYYCNAIAHEEGVYRWDFWGQGTQVTVSS
notes: not shown: C-terminal c-myc tag and His6 tag

EC50 (read off the curve) [6]: ~20 nM
B3: 103F10 (VHH)
VHH: EVQLVESGGGLVQAGGSLRLSCAASGRTFSSGTMGWFRRAPGKEREFVASIPWSGGRTYYADSVKDRFTISRDNAQNTVFLQMNSLKPEDTAVYYCAFKERSTGWDFASWGQGIQVTVSS
notes: Nanobody against PD-L2

EC50 (read off the curve) [7]: ~3 nM
IC50 (read off the curve) [8]: ~9 nM
B4: 104F5 (VHH)
VHH: EVQLVESGGGLVQPGGSLRLSCAASGFTLDYYAKCWFRQAPGKEREWVSCISSSDGSTYYADSVKGRFTISRDNAKNTVYLQMNSLKPEDTAVYFCAARHGGPLTVEYFFDYWGQGTQVTVSS

IC50 [9]: 2.47 nM
IC50 [10]: 2.01 nM
Kd [11]: 1.69 nM
koff [11]: 0.00732 s⁻¹
kon [11]: 4.35e+06 M⁻¹ s⁻¹
IC50 [12]: 2.66 nM
B5: 4CTLAPMP2G9 (VHH)
VHH: EVQLVKSGGQLVQAGGSLRLSCAATGRTYNSYPLGWFRQAPGKEREFVAAISASGTLRAYADSVKGRFTISRDSAKNTVYLQMNNLKPEDTAVYYCARARSVGWRASHHLSDYDNWGQGTQVTVSS
notes: short label tied to the entry by the clone code only; not shown: C-terminal c-myc tag and His6 tag

IC50 (read off the curve) [13]: ~10 nM
EC50 (read off the curve) [6]: ~7 nM
B6: 103D3 (VHH)
VHH: EVQLVESGGGLVEPGGSLRLSCVASGFTFSSYDMSWVRQAPGKGLEWVSTINSGGGITYRGSVKGRFTISRDNAKNTLYLQMNSLKPEDTAVYYCENGGSSYRRGQGTQVTVSS
notes: Nanobody against PD-L2

EC50 (read off the curve) [7]: 5 to 6 nM
IC50 (read off the curve) [8]: ~10 nM
B7: 104D2 (VHH)
VHH: EVQLVESGGGLVQPGGSLRLSCAASGFTLDYYAIGWFRQAPGKEREWASSISSSDGSTYYADSVKGRFTISRDNAKNTVFLQMNSLKPEDTAVYSCAASQAPITIATMMKPFYDYWGQGTQVTVSS

IC50 (read off the curve) [1]: ~7 ng/well
IC50 (read off the curve) [2]: ~10 ng/well
IC50 (read off the curve) [3]: ~100 nM
EC50 (read off the curve) [4]: ~20 ng/well
B8: 65C4 (VHH)
VHH: EVQLVESGGGLVQAGGSLRLSCKAAGRTFSSYAMGWFRQAPGKEREFVASIEWDGGGAYYEEAVKGRFTISRDNTKNTVYLQMDSLRPEDTAVYYCAASRWRTALTNYYDVADWGQGTQVTVSS
notes: Nanobody against CD28

binding result [6]: binds
B9: 103E3 (VHH)
VHH: EVQLVESGGGLVQTGGSLRLSCAASGFTLDYYGIGWFRQAPGKEREGVSFISGSDGSTYYAESVKGRFTISRDKAKNTVYLQMNSLKPEDTAVYYCAADPWGPPSIATMTSYEYKHWGQGTQVTVSS
notes: Nanobody against PD-L2

IC50 (read off the curve) [14]: ~10 nM
EC50 (read off the curve) [15]: ~100 nM
B10: 95G5 (VHH)
VHH: EVQLVESGGGLVQAGGSLRLSCASSGSTFSIDVMGWYRQAPGKVRERVAIIGTGGFPVYADSVKGRFTISRDNAKNTVYLQMNSLKPEDTAVYYCNAARLVALGSWGQGTQVTVSS
notes: Nanobody against B7-H2 (ICOSL)

binding result [15]: binds
B11: 95E6 (VHH)
VHH: EVQLVESGGALVQPGGSLRLSCAASGFTLGDYVIGWFRQAPGKEREWVSGISSRDDTTYYANSVKGRFTISRDNAKNTMYLQMNSLKPEDSAVYYCALRSGIAVARAPTNYDYWGQGTQVTVSS
notes: as for B10
